Data on 84 variants can be found in the RNAGym collection of RNA variant scans (doi:10.1021/acssynbio.7b00057).

B1: Pistol ribozyme (parent)
chain: GGGUCGUUGUUCCAUAAUCGCGUGGAUAUGGCACGCAAGUUUCUACCGGGCACCGUAAAUGUCCGACUGGAGCCGUUCGGGCGGCUAUAAACAGACCUCAGGCCCGAAGCGUGGCGGCACCUGCCGCCGGUGGUAAAAAAGAUCGGAAGAGCACACGUCU

The variants in this data set derive from B1. The data set can be described thus: aptazyme ON/OFF ratio, guanine; higher = stronger switching; co-transcriptional cleavage with and without guanine.
As to U8G G9U U10A C13A, the “aptazyme ON/OFF ratio” value was determined as 1.1.
For U8G G9U U10A C13U the value was 1.09.
For U8G G9C U11A C13U the value was 1.05; for U8G G9C U11A C13A, 1.04; for U8G G9C U11A C13G, 1.03.
For U8G G9C U11C C12G C13G the value was 1.05; for U8G G9C U11C C12G C13U, 1.04; for U8G G9C U11C C12G C13A, 1.03.
Take U8G G9U U10A U11C C12U C13A: the “aptazyme ON/OFF ratio” value turned out to be 1.08.
For U8G G9U U10A U11C C12U C13G the value was 1.05; for U8G G9U U10A U11C C12U C13U, 1.05.
For U8G G9U U10G the value was 1.07; for U8G G9U U10C, 1.51; for U8G G9U U10A, 1.2.
For U8G G9C U10G C12A the value was 1.19; for U8G G9C U10G C12G, 1.19; for U8G G9C U10G C12U, 1.06.
On to U8G G9C U10C U11C C12G C13G, for which the “aptazyme ON/OFF ratio” value turned out to be 1.09.
For U8G G9C U10C U11C C12G C13U the value was 1.08.
For U8G G9C U10C U11C C12G C13A the value was 1.11.
For U8G G9C U10G U11A C13G the value was 1.03; for U8G G9C U10G U11A C13U, 1.06; for U8G G9C U10G U11A C13A, 1.05.
U8G G9U U10A U11G C12G C13A: the “aptazyme ON/OFF ratio” value was determined as 1.05.
For U8G G9U U10A U11G C12G C13U the value was 1.37; for U8G G9U U10A U11G C12G C13G, 1.15; for U8G G9C U10G U11G C12U, 1.23.
For U8G G9C U10G U11G C12G the value was 1.31.
For U8G G9C U10G U11G C12A the value was 1.21; for U8G G9U U10A U11A C12G C13U, 1.22.
As for U8G G9U U10A U11A C12G C13A, the “aptazyme ON/OFF ratio” value is 1.2.
For U8G G9U U10A U11A C12G C13G the value was 1.18; for U8G G9U U10C U11A C12A C13A, 1.07.
Regarding U8G G9U U10C U11A C12A C13G, the “aptazyme ON/OFF ratio” value is 1.08.
For U8G G9U U10C U11A C12A C13U the value was 1.09; for U8G G9C U10G U11C, 1.03.
For U8G G9C U10G U11A the value was 1.07; for U8G G9C U10G U11G, 1.2; for U8G G9U U10A U11C C13U, 1.01.
For U8G G9U U10A U11C C13G the value was 1.03; for U8G G9U U10A U11C C13A, 1.02.
Turning to U8G G9C U10C U11C C12U C13U, the “aptazyme ON/OFF ratio” value came to 1.04.
On to U8G G9C U10C U11C C12U C13A, for which the “aptazyme ON/OFF ratio” value was determined as 1.04.
Consider U8G G9C U10C U11C C12U C13G, for which the “aptazyme ON/OFF ratio” value came out at 1.04.
For U8G G9C U11C C13U the value was 1.03; for U8G G9C U11C C13G, 1.04; for U8G G9C U11C C13A, 1.06.
For U8G G9U U10C C12A C13A the value was 1.2; for U8G G9U U10C C12A C13U, 1.15.
For U8G G9U U10C C12A C13G, the “aptazyme ON/OFF ratio” value worked out at 1.15.
For U8G G9U U10G C12A C13G the value was 1.04.
For U8G G9U U10G C12A C13U the value was 1.05; for U8G G9U U10G C12A C13A, 1.03.
For U8G G9C U10G U11A C12G the value was 1.15.
As to U8G G9C U10G U11A C12U, the “aptazyme ON/OFF ratio” value was 1.07.
For U8G G9C U10G U11A C12A the value was 1.17; for U8G G9C U10C C12G C13U, 1.08; for U8G G9C U10C C12G C13A, 1.16.
For U8G G9C U10C C12G C13G the value was 1.06; for U8G G9C U10G U11G C13A, 1.16; for U8G G9C U10G U11G C13U, 1.12.
For U8G G9C U10G U11G C13G the value was 1.12; for U8G G9C U11C C12U C13U, 1.04; for U8G G9C U11C C12U C13G, 1.03.
With U8G G9C U11C C12U C13A, the “aptazyme ON/OFF ratio” value is 1.03.
For U8G G9C U11A C12G C13G the value was 1.1; for U8G G9C U11A C12G C13A, 1.08; for U8G G9C U11A C12G C13U, 1.07.
Regarding U8G G9U U10C U11G C12U C13U, the “aptazyme ON/OFF ratio” value was found to be 1.24.
U8G G9U U10C U11G C12U C13G: the “aptazyme ON/OFF ratio” value is 1.09.
For U8G G9U U10C U11G C12U C13A the value was 1.09; for U8G G9U C12G C13G, 1.27.
For U8G G9U C12G C13A the value was 1.3; for U8G G9U C12G C13U, 1.31; for U8G G9C U10C C12A, 1.05.
For U8G G9C U10C C12U the value was 1.03; for U8G G9C U10C C12G, 1.08; for U8G G9U U10C C12G C13G, 1.25.
As for U8G G9U U10C C12G C13U, the “aptazyme ON/OFF ratio” value is 1.36.
For U8G G9U U10C C12G C13A the value was 1.26.
For U8G G9U U10A U11A C13G the value was 1.09.
For U8G G9U U10A U11A C13U the value was 1.25.
For the variant U8G G9U U10A U11A C13A, the “aptazyme ON/OFF ratio” value is 1.19.
For U8G G9C U10C U11A C12G C13G the value was 1.1.
